Results reported in PMC3752466 (Nature communications, 2013).
Values joined by “and” are separate entries in the source; they are usually repeats but may differ in a detail not shown here. Equal values may be shown once.

Target: T1, BoNT/B-HC (binding domain of botulinum neurotoxin type B, residues 857-1291) (UniProt P10844 857-1291)
T1 sequence: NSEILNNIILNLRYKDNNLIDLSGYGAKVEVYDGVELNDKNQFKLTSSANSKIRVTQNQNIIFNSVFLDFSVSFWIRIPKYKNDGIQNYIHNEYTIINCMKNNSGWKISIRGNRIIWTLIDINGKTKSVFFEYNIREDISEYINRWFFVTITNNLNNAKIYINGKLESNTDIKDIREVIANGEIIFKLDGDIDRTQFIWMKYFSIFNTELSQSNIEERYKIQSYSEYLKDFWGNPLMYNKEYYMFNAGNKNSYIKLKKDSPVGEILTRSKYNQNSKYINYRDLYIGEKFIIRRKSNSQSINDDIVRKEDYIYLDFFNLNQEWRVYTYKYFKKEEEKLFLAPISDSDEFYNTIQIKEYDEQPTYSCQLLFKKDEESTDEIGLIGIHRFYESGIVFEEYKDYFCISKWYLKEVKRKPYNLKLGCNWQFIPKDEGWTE
Test: ITC

B1: rat Syt-II peptide (residue 40-60) (peptide)
peptide: GESQEDMFAKLKDKFFNEINK
Kd: 0.14 µM and 0.18 µM
